# Test results: patent EP4644419A1 (Hangzhou Zhongmeihuadong Pharmaceutical Co., Ltd., dated 2025)
# T1: monkey antigen protein (monkey CD112R, Uniprot ID: A0A2K5WVV8) (monkey, UniProt A0A2K5WVV8 41-171)
# T1 sequence: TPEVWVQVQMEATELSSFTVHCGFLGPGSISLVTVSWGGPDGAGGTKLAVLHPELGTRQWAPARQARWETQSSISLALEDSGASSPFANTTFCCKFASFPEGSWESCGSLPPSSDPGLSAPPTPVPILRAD
# T2: human CD112R antigen protein huCD112R-His (Acro Biosysterm, PVG-H52H4) (human, UniProt Q6DKI7 41-171)
# T2 construct: purchased; also called human antigen protein; not shown: His tag
# T2 sequence (looked up): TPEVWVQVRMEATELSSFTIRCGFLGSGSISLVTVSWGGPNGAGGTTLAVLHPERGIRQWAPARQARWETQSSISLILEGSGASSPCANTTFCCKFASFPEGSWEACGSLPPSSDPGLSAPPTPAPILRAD
# Columns and labels:
# [1] = target: T1, monkey antigen protein (monkey CD112R, …); experiment: ELISA, monkey antigen protein (as Example 6.1)
# [2] = target: T2, human CD112R antigen protein …; experiment: ELISA, huCD112R-His coated on plate
EC50 [1],EC50 [2],Binder
0.07 nM,0.052 nM,"C9 (antibody, human IgG1, kappa, V domains shown) VH: EVQLQQSGAELVKPGASVKLSCTASGFNIKDIYMHWLKQRPEQGLEWIGRIDPTNGNSEYDPRFRGKATLTADTSSNIAYLQLSSLTSEDTAVYYCARFGIYPYFDYWGQGTTLTVSS VL: GIVMTQTPKFLLVSAGDRVTITCKASQSVNKAVVWYQQKPGQSPKLLISYASNRYTGVPDRFTGSGYGTDFTFSISTVQAEDLAVYFCQQDYSSPWTFGGGTKLEIKR"
0.044 nM,0.051 nM,"C43 (antibody, human IgG1, kappa, V domains shown) VH: QVQLQQPGAELVRPGTSVKLSCKASGNTFTTYWMHWVKQRPGQGHEWIGVIDASDSNTKYNQKFKGKATLTVDTSSSTAYMQLSSLTSEDSAVYYCARYYSGSSYGLDYWGQGTTLTVSS VL: DIQMTQTASSLSASLGDRVTISCRASQDISNYLNWYQQKPDGTVKLLIYYTSRLHSGVPSRFSGSGSGTDYSLTITNLEQEDIASYFCQQGNMFPPTFGGGTKLEIKR"
0.051 nM,0.023 nM,"C69 (antibody, human IgG1, kappa, V domains shown) VH: EVQLQQSGPVLVKPGASVKMSCKASGYRLTDYYMHWVKQSHGKSLEWIGIINPYNGGTSYNQKFKGKATLTVDKSSSTAYMELNSLTSDDSAVYYCARDSSNVGNDMDYWGQGTSVSVSS VL: DIQMTQTTSSLSASLGDRVTISCRASQDISNYLNWYLQKPDGTVKLLIYYSSRLHSGVPSRFSGSGSGTDYSLTINNLEQEDIATYFCQQGNTLPRTFGGGTKLEIRR"
3.8 nM,0.052 nM,"C25 (antibody, human IgG1, kappa, V domains shown) VH: QVQLQQPGAELVRPGTSVKLSCKASGNTFTSYWMHWVKQRPGQGHEWIGVIDASDSKTKYNQKFKGKATLTVDTSSSTAYMQLSSLTSEDSAVYYCARYYSGSSYGLDYWGQGTTLTVSS VL: DIQMTQTASSLSASLGDRVTISCRASQDISNYLNWYQQKPDGTVKLLIYYTSRLHSGVPSRFSGSGSGTDYSLTISNLEQEDIATYFCQQGNTLPPTFGGGTKLEIKR"
–,0.064 nM,"C38 (antibody, human IgG1, kappa, V domains shown) VH: QVQLQQSGAELMKPGASVKLSCKATGYTFTGYWIEWVKQRPGHGLEWIGEILPESGRTNYNEKFKGKATFTADTSSNTAYMQLSSLTTEDSAIYYCASLLFFDYWGQGTTLTVSS VL: not shown"
–,0.089 nM,"C61 (antibody, human IgG1, kappa, V domains shown) VH: DVQLQESGPGLVKPSQSLSLTCSVTGYSITSNYYWNWIRQFPGNNLEWMGYISSDGTNNYNPSLRNRISITRDTSKNQFFLKLNSVTTEDTATYYCARGLRYGPWGQGTTLTVSS VL: QLILTQSSSASFSLGASAKLTCTLSSQHSTYTIEWYQQQPLKAPKYVMEVKNDGSHRTGDGIPDRFSGSSSGADRYLSISNIQPEDEAIYICGVGDINNYIFGGGTKVTVLR"
0.055 nM,0.037 nM,"C121 (antibody, human IgG1, kappa, V domains shown) VH: EVQLQQSGPEVVKPGASVKISCKASGNTFTDYFINWVKQSHGKSLEWIGDINPDNGGTNYNQKFKGKATLTVDKSSGTAFMGLRSLTSEDSAVYYCATLYFDYWGQGTSLTVSS VL: DIVMTQSPSSLSVSAGEKVTMSCKSSQSLLNSGNQKNYLAWYQQKPGQPPKLLIYGASTRESGVPDRFTGSGSGTDFTLTISSVQAEDLAVYYCQNAHSSPYTFGGGTRLEIKR"
0.031 nM,0.03 nM,"C122 (antibody, human IgG1, kappa, V domains shown) VH: EVQLQQSGPEVVKPGASVKISCKASGNTFTDYFINWVKQRHGKSLEWIGDVNPDNGGTNYNQKFKGKATLTVDKSSGTAFMGLRSLTSEDSAVYYCATLFFDSWGQGTTLTVSS VL: DIVMTQSPSSLNVSAGEKVTMSCKSSQSLLNSGNQKNYLAWYQQKPGQPPKLLIYGASTRESGVPDRFTGSGSGTDFTLTISSVQAEDLALYYCQNAHSSPYTFGGGTKLEIKR"
–,1.3 nM,"C33 (antibody, human IgG1, kappa, V domains shown) VH: QVQLQQSGPELVKPGASVKISCKASGYTFTDYYINWVKQRPGQGLEWIGWIFPGSGSTYYNEKFKGKATPTVDKYSSTAYMLLSSLTSEDSAVYFCAREDYFDRGDCWGQGTSVTVSS VL: QIVLTQSPAIMSASPGEKVTMTCSASSSINYMHWYQQKPGTSPKRWIYDTSKLASGVPARFSGSGSGTSYSLTISSMEAEDAATYYCHQRSSYPFTFGSGTKLEIKR"
0.056 nM,0.035 nM,"C123 (antibody, human IgG1, kappa, V domains shown) VH: EVQLVESGGGLVKPGGSLKLSCAASGFTFSNFAMSWVRQTPAMRLESVATIVNGGINTYYPDTVKGRFTVSRDNAKNTLYLQMSSLRSEDTAIYYCARHDDFLYYAMDYWGQGTSVTVSS VL: QIVLTQSPAIMSASPGEKVTMTCSASSSVSYMFWYQQKPGSSPRLLIYDTSNLASGVPVRFSGSGSGTSYSLTISRLEAEDAATYYCQQWTSYPLTFGAGTKLDLKR"
0.04 nM,0.025 nM,"C143 (antibody, human IgG1, kappa, V domains shown) VH: EVQLVESGGGLVKPGGSLKLSCAASGFTFSNFAMSWVRQTPAMRLESVATIVNGGINTYYPDTVKGRFTVSRDNAKNTLYLQMSSLRSEDTAIYYCARHDDFLYYAMDYWGQGTSVTVSS VL: QIVLTQSPAIMSASPGEKVTMTCSASSSVNYMFWYQQKPGSSPRLLIYDTSNLASGVPVRFSGSGSGTSYSLTISRLEAEDAATYYCQQWTSYPLTFGAGTKLDLKR"
0.061 nM,0.025 nM,"C116 (antibody, human IgG1, kappa, V domains shown) VH: EVKLVESGGGLVQPGGSLKLSCAVSGFTFSSYTMSWVRQTPEKRLELVAKISNSGGSTNYPDTVKGRFTLSRDNVKNTLYLQMSSLKSEDTAIYYCTRYSWDVYAMDYWGQGTSVTVSS VL: DIQMTQSPASLSASVGETVIITCRASENIYSYLAWYQQKQGKSPHLLVYNAETLVEGVPSRFSGSGSATQFSLKINSLQPEDFGTYYCQHHYGDPTFGGGTKLEIKR"
0.034 nM,0.032 nM,"C110 (antibody, human IgG1, kappa, V domains shown) VH: EVQLQQSGAELAKPGASVKLSCTVSGFNIKDTYIHWVKQRPEQGLEWIGGIDPAIGNTVSASKFQDKATITADTSSSTAYMQLSSLTSGDTAVYYCARERVHSNTLYYAMDYWGQGTSVTVSS VL: DIVLTQSPASLAVSLGQRATISCRASKSVSISGYSYMHWYQQKPGQPPKLLIYLASNLESGVPARFSGSGSGTDFTLNIHPVEEEDAATYYCQHSRELPPTFGGGTKLEIKR"
0.224 nM,0.228 nM,"C51 (antibody, human IgG1, kappa, V domains shown) VH: QVQLQQSGAELVRPGASVTLSCKASGYTFTDYEMHWVKQTPVHGLEWIGAIDPETGGTAYNQKFKGKAILTADKSSSTAYMELRSLTSEDSAVYYCTRWITTVVATLYYFDYWGQGTTLTVSS VL: DIVMTQSQKFMSTSVGDRVSITCKASQNVRTAVAWYQQKPGQSPKALIYLASNRHTGVPDRFTGSGSGTDFTLTISNVQSEDLADYFCLQHWNYPLTFGAGTKLELKR"
0.057 nM,0.029 nM,"C118 (antibody, human IgG1, kappa, V domains shown) VH: QVQLQQPGAELVKPGTSVKLSCKAAGYIFTSSWMHWVKQRPGQGLEWIGEINPSDGRTNYNEKFKNKATLTVDHSSSTAYMQLSSLTSEDSAVYYCASNADRAYYTMDYWGQGTSVTVSS VL: not shown"
0.055 nM,0.028 nM,"C112 (antibody, human IgG1, kappa, V domains shown) VH: QVQLQQPGAELVKPGASVKLSCKASGYTFTSSWMHWVKQRPGQGLEWIGEINPSDGRTNYNEKFKSKATLTVDHSSSTAYMQLSSLTSEDSAVYYCASNADRAYYTMDYWGQGTSVTVSS VL: not shown"
0.08 nM,0.025 nM,"C119 (antibody, human IgG1, kappa, V domains shown) VH: EVKLVESGGGLVQPGGSLKLSCVASGFTFNTYIMSWVRQTPEKRLELVADISNSGGNTYYSDTVKGRFTISRDNAKNTLYLQMSSLKSEDTAMYYCARPDNWDPFVYWGQGTLVTVSA VL: DIQMTQSSSSFSVSLGDRVTITCKASEDIYARLAWYQQKPGNAPRLLISGATSLETGVPSRFSGSGSGKNYTLSITSLQTEDVGTYYCQQHWSTPWTFGGGTNLEIKR"
0.058 nM,0.055 nM,"C6 (antibody, human IgG1, kappa, V domains shown) VH: QVHLHQSGPELVKPGASVKISCKASGYTFTAYYINWVKQRPGQGLEWIGWIFPGSDSTYYNEKFKGRATLTVDKSSSTAYMLLNSLTSEDSAVYFCARDGELRGPFDYWGQGTTLTVSS VL: DIQMTQSPSSLSASLGGKVTITCKASQDINKYIAWYQHKPGKSPRLLIHYTSTLQAGIPSRFSGSGSGRDYSFSISNLEPEDSATYYCLQYDNLLTFGGGTKLEIKR"
0.076 nM,0.053 nM,"C44 (antibody, human IgG1, kappa, V domains shown) VH: QVQLQQSGPELMKPGASLKISCKASGYTFTDSYINWVKQRPGQGLEWIGWIFPGSGSTYYNEKFKGTATLTVDKSSSTAYMLLSSLTSEDSAAYFCARDGGLRGPFDYWGQGTTLTVSS VL: DIQMTQSPSSLSASLGGKVTITCKASQDINKYIAWYQHKPGKGPRLLIHYTSTLQSGIPSRFSGSGSGRDYFFSISNLESEDIATYYCLQYDHLLTFGGGTKLEIKR"
0.114 nM,0.059 nM,"C45 (antibody, human IgG1, kappa, V domains shown) VH: QVHLQQSGPDLVKPGVSVKISCKASGYTFTDYYINWVKQRPGQGLEWIGWIFPGSGTTYYNEKFKGKATLTVDKSSSTAYMLLSSLTSEDSAVYFCARDGGLRGPFDYWGQGTTLTVSS VL: DIQMTQSPSSLSASLGGKVTITCKANQDINKYIAWYQYKPGKGPRLLIHYTSTLQPDIPSRFSGSGSGRDFSFSISNLEPEDIATYYCLQYDYLYTFGGGTKLEIKR"
0.045 nM,0.041 nM,"C117 (antibody, human IgG1, kappa, V domains shown) VH: QVQLQQSGAELARPGASVKMSCKASGYTFTDYWMQWVKQRPGQGLEWIGAIFPGNGETRDTQKFKGRATLTADRSSSTAYIQLSSLTSEDSAVYYCATFNNYLDYWGQGTTLTVAS VL: QIVLTQSPAIMSASPGEKVTMTCSASSSVSYMHWYQQKSGASPKRWIYDTSKLTSGVPARFSGSGSGTSYSLTISNMEAEDAATYYCQQWISNPYTFGGGTKLEIKR"
